The results in this text go back to US20210054355A1 (NEW YORK UNIVERSITY, published 2021).

Sequences and labels used below:
B1: Soluble human α-Klotho ectodomain (αKlotho^ecto) (receptor)
chain: EPGDGAQTWARVSRPPAPEAAGLFQGTFPDGFLWAVGSAAYQTEGGWQQHGKGASIWDTFTHHPLAPPGDSRNASLPLGAPSPLQPATGDVASDSYNNVFRDTEALRELGVTHYRFSISWARVLPNGSAGVPNREGLRYYRRLLERLRELGVQPVVTLYHWDLPQRLQDAYGGWANRALADHFRDYAELCFRHFGGQVKYWITIDNPYVVAWHGYATGRLAPGIRGSPRLGYLVAHNLLLAHAKVWHLYNTSFRPTQGGQVSIALSSHWINPRRMTDHSIKECQKSLDFVLGWFAKPVFIDGDYPESMKNNLSSILPDFTESEKKFIKGTADFFALCFGPTLSFQLLDPHMKFRQLESPNLRQLLSWIDLEFNHPQIFIVENGWFVSGTTKRDDAKYMYYLKKFIMETLKAIKLDGVDVIGYTAWSLMDGFEWHRGYSIRRGLFYVDFLSQDKMLLPKSSALFYQKLIEKNGFPPLPENQPLEGTFPCDFAWGVVDNYIQVDTTLSQFTDLNVYLWDVHHSKRLIKVDGVVTKKRKSYCVDFAAIQPQIALLQEMHVTHFRFSLDWALILPLGNQSQVNHTILQYYRCMASELVRVNITPVVALWQPMAPNQGLPRLLARQGAWENPYTALAFAEYARLCFQELGHHVKLWITMNEPYTRNMTYSAGHNLLKAHALAWHVYNEKFRHAQNGKISIALQADWIEPACPFSQKDKEVAERVLEFDIGWLAEPIFGSGDYPWVMRDWLNQRNNFLLPYFTEDEKKLIQGTFDFLALSHYTTILVDSEKEDPIKYNDYLEVQEMTDITWLNSPSQVAVVPWGLRKVLNWLKFKYGDLPMYIISNGIDDGLHAEDDQLRVYYMQNYINEALKAHILDGINLCGYFAYSFNDRTAPRFGLYRYAADQFEPKASMKHYRKIIDSNGFPGPETLERFCPEEFTVCTECSFFHTRKS
notes: also called wild-type αKlotho^ecto; soluble αKlotho
B2: FGFR1c^ecto/ΔHBS (FGFR1c^ecto carrying K160Q/K163Q) (receptor)
chain: DNTKPNRMPVAPYWTSPEQMEQKLHAVPAAKTVKFKCPSSGTPNPTLRWLKNGKEFKPDHRIGGYKVRYATWSIIMDSVVPSDKGNYTCIVENEYGSINHTYQLDVVERSPHRPILQAGLPANKTVALGSNVEFMCKVYSDPQPHIQWLKHIEVNGSKIGPDNLPYVQILKTAGVNTTDKEMEVLHLRNVSFEDAGEYTCLAGNSIGLSHHSAWLTVLEALEER
notes: also called FGFR1c^ΔHBS
B6: FGFR1c^ecto/ΔHBS′ (FGFR1c^ecto carrying K207Q/R209Q) (receptor)
chain: DNTKPNRMPVAPYWTSPEKMEKKLHAVPAAKTVKFKCPSSGTPNPTLRWLKNGKEFKPDHRIGGYQVQYATWSIIMDSVVPSDKGNYTCIVENEYGSINHTYQLDVVERSPHRPILQAGLPANKTVALGSNVEFMCKVYSDPQPHIQWLKHIEVNGSKIGPDNLPYVQILKTAGVNTTDKEMEVLHLRNVSFEDAGEYTCLAGNSIGLSHHSAWLTVLEALEER
notes: also called FGFR1c^ΔHBS′

The target of series [1] is T1, FGF23 C-terminal tail peptide (FGF23^C-tail) (human).
T1 construct: The peptide may have been shorter, e.g. S180 to S205
T1 peptide: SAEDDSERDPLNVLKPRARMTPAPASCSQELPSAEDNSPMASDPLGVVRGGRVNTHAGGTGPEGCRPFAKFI
Kind of series: fluorescence dye-based thermal shift assay (SYPRO Orange), 1:1 mixture; over the peak of αKlotho^ecto alone the sheet prints 48 [left]. How it is done: Fluorescence Dye-Based Thermal Shift Assay: SYPRO Orange dye (#S6650, ThermoFisher Scientific, USA) was used as the fluorescent probe. 15 μl of 20 μM solutions of protein samples (wild-type and mutated forms of FGF23; αKlotho^ecto or αKlotho^{ecto/ΔRBA} alone; 1:1 mixtures of αKlotho^ecto or αKlotho^{ecto/ΔRBA} with FGF23 C-terminal tail peptide) were mixed with 5 μl of working dye solution (1:25 dilution) in duplicate in PCR strips. A temperature gradient from 4° C. to 100° C. at 1° C./minute increment was carried out with a CFX96 Touch™ Real-Time PCR Detection System (Bio-Rad, USA). Fluorescence was recorded as a function of temperature in real time. The melting temperature (Tm) was calculated with StepOne software v2.2 as the maximum of the derivative of the resulting SYPRO Orange fluorescence curves.

Series [2] addresses B1. Kind of series: SEC-MALS, 1:1:1 mixture with FGF23 and αKlotho^ecto. On the procedure: (§1) A Superdex 200 10/300 GL column (GE Healthcare, USA) was placed in-line between the HPLC pump (Waters 1525) and the HPLC UV (Waters 2998 Photodiode Array), laser light scattering, and refractive index detectors. Light scattering and refractive index detectors were calibrated following the manufacturer's guidelines. The refractive index increment (dn/dc) in which n is the refractive index and c is the concentration of the mixture of DDM and CHS in 20 mM Tris-HCl pH 8.0 buffer containing 300 mM NaCl, was determined offline using an Optilab T-rEX refractive index detector. Monomeric bovine serum albumin (#23210, Thermo Scientific, USA) was used as part of routine data quality control.
60 ml or more of 25 mM HEPES pH 7.5 buffer containing 150 mM NaCl were passed through the system at a flow rate of 0.5 mL/min to equilibrate the Superdex 200 10/300 GL column and establish stable baselines for light scattering and refractive index detectors. Purified αKlotho^ecto, FGER1c^ecto (wild type or mutant), and FGF23 (wild type or mutant) proteins were mixed at a molar ratio of 1:1:1 and concentrated to 12.5 μM. 50 μl of protein samples with a molar equivalent of a heparin hexasaccharide (#H006, Iduron, Manchester, U.K.) were injected onto the gel filtration column, and the column eluent was continuously monitored for 280 nm absorbance, laser light scattering, and refractive index. In a separate set of experiments, 50 μl of 1:1:1 FGF23-FGFR1c^ecto-αKlotho^ecto ternary complex at 12.5 μM concentration was mixed with heparin hexasaccharide at molar ratios of 1:0.25, 1:0.5, 1:1, or 1:2, and the mixtures were injected onto the gel filtration column. 50 μl of ternary complex without added heparin hexasaccharide were run as a control. In yet another set of experiments, αKlotho^ecto (wild type or mutant) and FGER1c^ecto were mixed at a molar ratio of 1:1, and 50 μl of concentrated protein mixtures were injected onto the gel filtration column. 50 μl of concentrated αKlotho^ecto (wild type or mutant) alone were run as a control in these experiments. The analyses were performed at ambient temperature. Data were collected every second at a flow rate of 0.5 ml/min.

Series [3] deals with B1. Kind of series: SEC-MALS, 1:1:1 mixture with FGFR1c^ecto and αKlotho^ecto. On the procedure:
as §1
(§2) 60 ml or more of 25 mM HEPES pH 7.5 buffer containing 150 mM NaCl were passed through the system at a flow rate of 0.5 mL/min to equilibrate the Superdex 200 10/300 GL column and establish stable baselines for light scattering and refractive index detectors. Purified αKlotho^ecto, FGER1c^ecto (wild type or mutant), and FGF23 (wild type or mutant) proteins were mixed at a molar ratio of 1:1:1 and concentrated to 12.5 μM. 50 μl of protein samples with a molar equivalent of a heparin hexasaccharide (#H006, Iduron, Manchester, U.K.) were injected onto the gel filtration column, and the column eluent was continuously monitored for 280 nm absorbance, laser light scattering, and refractive index. […]

Series [4] deals with B6. Kind of series: SEC-MALS of the 1:1:1 mixture with αKlotho^ecto and heparin hexasaccharide; the two proteins are seen together in the ternary complex [panel B]. How it is done:
as §1, §2
(In general: SEC sorts molecules by how far they enter the pores of the column.)

Series [5] deals with B2. Described as above. How it is done:
as §1, §2

For B1, the “melting temperature (peak of derivative fluorescence) of the mixture” value in series [1] was determined as 54 °C.
B2: the binding result in series [2] is on record as “binds”.

B3: FGFR1c^ecto/ΔSLBS (FGFR1c^ecto carrying I203E) (receptor)
chain: DNTKPNRMPVAPYWTSPEKMEKKLHAVPAAKTVKFKCPSSGTPNPTLRWLKNGKEFKPDHREGGYKVRYATWSIIMDSVVPSDKGNYTCIVENEYGSINHTYQLDVVERSPHRPILQAGLPANKTVALGSNVEFMCKVYSDPQPHIQWLKHIEVNGSKIGPDNLPYVQILKTAGVNTTDKEMEVLHLRNVSFEDAGEYTCLAGNSIGLSHHSAWLTVLEALEER
notes: also called FGFR1c^ΔSLBS
For the molecule B3, the binding result in series [2] is “binds”.

B4: FGFR1c^ecto/ΔRRBS (FGFR1c^ecto carrying A171D) (receptor)
chain: DNTKPNRMPVAPYWTSPEKMEKKLHAVPADKTVKFKCPSSGTPNPTLRWLKNGKEFKPDHRIGGYKVRYATWSIIMDSVVPSDKGNYTCIVENEYGSINHTYQLDVVERSPHRPILQAGLPANKTVALGSNVEFMCKVYSDPQPHIQWLKHIEVNGSKIGPDNLPYVQILKTAGVNTTDKEMEVLHLRNVSFEDAGEYTCLAGNSIGLSHHSAWLTVLEALEER
notes: also called FGFR1^ΔRRBS
Take B4: the binding result in series [2] was “binds”.

B5: FGFR1c^ecto/ΔSLBS′ (FGFR1c^ecto carrying V221D) (receptor)
chain: DNTKPNRMPVAPYWTSPEKMEKKLHAVPAAKTVKFKCPSSGTPNPTLRWLKNGKEFKPDHRIGGYKVRYATWSIIMDSVDPSDKGNYTCIVENEYGSINHTYQLDVVERSPHRPILQAGLPANKTVALGSNVEFMCKVYSDPQPHIQWLKHIEVNGSKIGPDNLPYVQILKTAGVNTTDKEMEVLHLRNVSFEDAGEYTCLAGNSIGLSHHSAWLTVLEALEER
notes: also called FGFR1c^ΔSLBS′
B5: the binding result in series [2] was “binds”.
As for B6, in series [2], the binding result was “binds”.

B7: FGF23^ΔHBS (FGF23^WT carrying R140A/R143A) (ligand)
chain: YPNASPLLGSSWGGLIHLYTATARNSYHLQIHKNGHVDGAPHQTIYSALMIRSEDAGFVVITGVMSRRYLCMDFRGNIFGSHYFDPENCRFQHQTLENGYDVYHSPQYHFLVSLGAAKAAFLPGMNPPPYSQFLSRRNEIPLIHFNTPIPRQHTQSAEDDSERDPLNVLKPRARMTPAPAS
As to B7, the binding result in series [3], in series [4] and in series [5] was “binds” each time.
